Reference: publication PMC10299496, “Effect of Chemical Chaperones on the Stability of Proteins during Heat– or Freeze–Thaw Stress” (International Journal of Molecular Sciences, 2023)
Where “and” joins values, the source holds several entries; their conditions need not be identical. Equal entries are not always repeated.

Key:
[1] = target: the molecule itself; experiment: AUC; sedimentation velocity, c(M) distributions; GDH 0.2 mg/mL pre-heated 10 min at 50 °C with or without HPCD, Sorb, Tre or Bet, then cooled; run at 25 °C, 48,000 rpm, 0.1 M Na-phosphate pH 7.6, 0.01 M NaCl
[2] = target: the molecule itself; experiment: AUC; sedimentation velocity, c(M) distributions; Phb 0.35 mg/mL pre-heated 40 min at 48 °C with or without HPCD, Tre or Bet, cooled 2 min in ice water; run at 25 °C, 48,000 rpm, 0.03 M HEPES pH 6.8, 0.15 M NaCl

B1: Glutamate dehydrogenase from bovine liver (enzyme)
chain: not shown
notes: glutamate dehydrogenase, bovine liver; homohexamer of six identical subunits of 56-57 kDa; also called GDH; GDHfr (frozen-thawed GDH)
[1]
  stoichiometry N: 6 and 2

B2: Glycogen phosphorylase b from rabbit skeletal muscle (enzyme, UniProt P00489 1-843, looked up)
chain: MSRPLSDQEKRKQISVRGLAGVENVTELKKNFNRHLHFTLVKDRNVATPRDYYFALAHTVRDHLVGRWIRTQQHYYEKDPKRIYYLSLEFYMGRTLQNTMVNLALENACDEATYQLGLDMEELEEIEEDAGLGNGGLGRLAACFLDSMATLGLAAYGYGIRYEFGIFNQKICGGWQMEEADDWLRYGNPWEKARPEFTLPVHFYGRVEHTSQGAKWVDTQVVLAMPYDTPVPGYRNNVVNTMRLWSAKAPNDFNLKDFNVGGYIQAVLDRNLAENISRVLYPNDNFFEGKELRLKQEYFVVAATLQDIIRRFKSSKFGCRDPVRTNFDAFPDKVAIQLNDTHPSLAIPELMRVLVDLERLDWDKAWEVTVKTCAYTNHTVLPEALERWPVHLLETLLPRHLQIIYEINQRFLNRVAAAFPGDVDRLRRMSLVEEGAVKRINMAHLCIAGSHAVNGVARIHSEILKKTIFKDFYELEPHKFQNKTNGITPRRWLVLCNPGLAEIIAERIGEEYISDLDQLRKLLSYVDDEAFIRDVAKVKQENKLKFAAYLEREYKVHINPNSLFDVQVKRIHEYKRQLLNCLHVITLYNRIKKEPNKFVVPRTVMIGGKAAPGYHMAKMIIKLITAIGDVVNHDPVVGDRLRVIFLENYRVSLAEKVIPAADLSEQISTAGTEASGTGNMKFMLNGALTIGTMDGANVEMAEEAGEENFFIFGMRVEDVDRLDQRGYNAQEYYDRIPELRQIIEQLSSGFFSPKQPDLFKDIVNMLMHHDRFKVFADYEEYVKCQERVSALYKNPREWTRMVIRNIATSGKFSSDRTIAQYAREIWGVEPSRQRLPAPDEKIP
notes: glycogen phosphorylase b (muscle form), rabbit skeletal muscle; dimer of two identical subunits of 97.4 kDa; also called Phb; Phbfr (frozen-thawed Phb)
[2]
  stoichiometry N: 2 and 4
